Source: patent EP4628505A1 (Genor Biopharma Co., Ltd., dated 2025)

T1: recombinant human CTLA-4 (human, UniProt P16410 36-161, limits assumed)
T1 construct: also called CTLA4 antigen
T1 sequence (looked up): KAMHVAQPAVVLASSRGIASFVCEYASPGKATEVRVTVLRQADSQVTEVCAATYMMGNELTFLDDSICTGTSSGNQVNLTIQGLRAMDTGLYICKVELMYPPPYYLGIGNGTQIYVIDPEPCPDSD


How the values were obtained:
[1] = target: T2, mouse CTLA4 (Acro Biosystem, Catlog #CT4-M52H5) (mouse, UniProt P09793 36-161); assay: ELISA, plate coated with 1 ug/ml mouse CTLA4
T2 construct: Bought protein

recombinant human CTLA-4 = target: T1, recombinant human CTLA-4; assay: Octet (BLI), 1:1 binding model

Row | Binder | binding result [1] | Kd (recombinant human CTLA-4) | koff (recombinant human CTLA-4) | kon (recombinant human CTLA-4)
1 | GBD008-hS005-3 (antibody, V domains shown, Humanized heavy chain-only antibody (VHH-Fc), no light chain) VH: EVQLVESGGGLVQPGGSLRLSCAASGRTASSNAMAWVRQAPGKEREFVSAISATGGLTAYADSVKGRFTISRDNSKNTLYLQMNSLRAEDTAVYYCAVGRERWYLRHTENEYDYWGQGTLVTVSS | no binding | 0.524 nM | 9.91e-05 s⁻¹ | 189000 M⁻¹ s⁻¹
2 | GBD008-S019 (antibody, V domains shown, Heavy chain-only antibody (VHH-Fc), no light chain; also called GBD008-5019) VH: QVQLVESGGGLVQPGGSLTLSCAASGFTFSSYTMAWYRQAPGKEREVVAGISRSGGTTNYGDSVKGRFTISRDNAKNTVYLQMNSLKPEDTAVYYCRAVSDYWGQGTQVTVSS | no binding | 0.165 nM | 4.35e-05 s⁻¹ | 263000 M⁻¹ s⁻¹
3 | GBD008-S004 (antibody, V domains shown, Heavy chain-only antibody (VHH-Fc), no light chain) VH: EVQLVESGGGLVQAGGSLRLSCLASGRTFSSYDMGWFRQAPGKEREFVAAISWGGVNTYYADSVKGRFTISRDNAKNTVYLQMNSLKPEDTAVYYCARGSAPYSSSRSSAQETYAQWGQGTQVTVSS | no binding | 28.9 nM | 0.00501 s⁻¹ | 173000 M⁻¹ s⁻¹
4 | GBD008-hS004-5 (antibody, V domains shown, Humanized heavy chain-only antibody (VHH-Fc), no light chain) VH: EVQLVESGGGLVQPGGSLRLSCAASGRTFSSYDMGWFRQAPGKEREFVAAISWGGVNTYYADSVKGRFTISRDNAKNTLYLQMNSLRAEDTAVYYCARGSAPYSSSRSSAQETYAQWGQGTLVTVSS | no binding | 27.9 nM | 0.00671 s⁻¹ | 241000 M⁻¹ s⁻¹

The next lines start with the values.

Row | binding result [1] | Kd (recombinant human CTLA-4) | koff (recombinant human CTLA-4) | kon (recombinant human CTLA-4) | Binder
5 | no binding | 0.53 nM | 0.000114 s⁻¹ | 214000 M⁻¹ s⁻¹ | GBD008-hS005-3-2 (antibody, V domains shown, Humanized heavy chain-only antibody (VHH-Fc), no light chain) VH: EVQLVESGGGLVQPGGSLRLSCAASGRTASSNAMAWFRQAPGKEREFVSAISATGGLTAYADSVKGRFTISRDNSKNTLYLQMNSLRAEDTAVYYCAVGRERWYLRHTENEYDYWGQGTLVTVSS
6 | no binding | 0.236 nM | 7.13e-05 s⁻¹ | 302000 M⁻¹ s⁻¹ | GBD008-hS019-4 (antibody, V domains shown, Humanized heavy chain-only antibody (VHH-Fc), no light chain) VH: EVQLLESGGGLVQPGGSLRLSCAASGFTFSSYTMAWYRQAPGKEREVVAGISRSGGTTNYGDSVKGRFTISRDNSKNTLYLQMNSLRAEDTAVYYCRAVSDYWGQGTLVTVSS
